Source: US20180155451A1 (published 2018)

T1: FcγRIIb (human, UniProt P31994 43-217)
T1 construct: extracellular domain; Soluble extracellular domain with C-terminal His tag, used as analyte in Biacore; also called FcgRIIb; 2b; not shown: His tag attached to the C terminus
T1 sequence (looked up): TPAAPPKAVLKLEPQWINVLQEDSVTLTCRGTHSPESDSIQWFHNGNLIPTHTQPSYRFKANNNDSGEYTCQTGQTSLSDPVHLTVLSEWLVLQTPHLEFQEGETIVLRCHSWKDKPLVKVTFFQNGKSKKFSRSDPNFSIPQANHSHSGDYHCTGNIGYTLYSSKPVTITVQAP

T2: FcγRIIb, extracellular domain with C-terminal His tag (human, UniProt P31994 43-217)
T2 construct: extracellular domain; soluble receptor used as Biacore analyte; also called 2b; FcgRIIb
T2 sequence (looked up): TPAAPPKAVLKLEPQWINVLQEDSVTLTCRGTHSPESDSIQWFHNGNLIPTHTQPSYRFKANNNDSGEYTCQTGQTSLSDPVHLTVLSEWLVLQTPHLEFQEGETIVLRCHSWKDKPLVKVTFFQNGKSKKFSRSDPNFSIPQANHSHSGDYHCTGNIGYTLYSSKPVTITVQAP


Legend:
FcγRIIb = biological target: T1, FcγRIIb; assay: SPR (Biacore), antibody captured on antigen peptide, FcγR as analyte; relative to GpH7-A5/GpH7-B3/GpL16-k0 = 100
FcγRIa = biological target: T3, FcγRIa (human, UniProt P12314 16-292); assay: as above
T3 construct: extracellular domain; Soluble extracellular domain with C-terminal His tag, used as analyte in Biacore; also called FcgRI; 1a; not shown: His tag attached to the C terminus

[1] = biological target: T2, FcγRIIb, extracellular domain with …; assay: Biacore SPR; binding relative to GpH7-A5/GpH7-B3/GpL16-k0 (=100)
Procedure: The heterodimerized antibodies He Abs in which one of the H chains was introduced with an alteration were assayed for their binding activities to each activating FcγR and inhibitory FcγR according to the method described in Example 4. […] The activating FcγRs in FIGS. 26, 27, 28, and 29 are FcγRIa, FcγRIIa (R), FcγRIIa (H), and FcγRIIIa, respectively.
Analysis of interaction between objective antibody and the FcγR was carried out using Biacore T100 (GE Healthcare). HBS-EP+ (GE Healthcare) was used as the running buffer, and the measurement temperature was set to 25° C. Chips produced by immobilizing the antigen peptide by the amine coupling method to a Series S Sencor Chip CM5 (GE Healthcare), or alternatively, chips produced by allowing preliminarily biotinylated antigen peptides to interact with and immobilize onto a Series S Sensor Chip SA (certified) (GE Healthcare) were used. Antibodies of interest were captured onto an antigen peptide-immobilized chip, and allowed to interact to each FcγR diluted with running buffer. To regenerate and repeatedly use the chip, the antibodies captured on the chip were washed off by reacting 10 mM glycine-HCl, pH 1.5.

T3 sequence (P12314 16-292): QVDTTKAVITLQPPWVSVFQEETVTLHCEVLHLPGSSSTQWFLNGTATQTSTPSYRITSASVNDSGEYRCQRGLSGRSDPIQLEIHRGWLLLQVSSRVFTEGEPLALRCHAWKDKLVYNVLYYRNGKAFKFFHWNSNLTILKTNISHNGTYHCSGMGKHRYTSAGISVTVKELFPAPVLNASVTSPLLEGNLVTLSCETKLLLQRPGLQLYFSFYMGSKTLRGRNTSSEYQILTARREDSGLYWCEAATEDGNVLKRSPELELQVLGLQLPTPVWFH

He/Con_2b (FcγRIIb)	He/Con_1a (FcγRIa)	He/Con_2b (IIb binding) [1]	Binder
114 % of control	98.6 % of control		GpH7-A5/GpH7-B3 variant L234_20W/GpL16-k0 (antibody, human IgG1, kappa, Heterodimerized IgG1; mutation in the GpH7-B3 H chain only; also called He Ab) heavy 1: not shown heavy 2: not shown light: DIVMTQSPLSLPVTPGEPASISCQASESLVHSNRNTYLHWYLQKPGQSPQLLIYKVSNRFSGVPDRFSGSGSGTDFTLKISRVEAEDVGVYYCSQNTHVPPTFGQGTKVEIERTVAAPSVFIFPPSDEQLKSGTASVVCLLNNFYPREAKVQWKVDNALQSGNSQESVTEQDSKDSTYSLSSTLTLSKADYEKHKVYACEVTHQGLSSPVTKSFNRGEC
102 % of control	85.3 % of control		GpH7-A5/GpH7-B3 variant S239_05P/GpL16-k0 (antibody, human IgG1, kappa, Heterodimerized IgG1; mutation in the GpH7-B3 H chain only; also called He Ab) heavy 1: not shown heavy 2: not shown light: DIVMTQSPLSLPVTPGEPASISCQASESLVHSNRNTYLHWYLQKPGQSPQLLIYKVSNRFSGVPDRFSGSGSGTDFTLKISRVEAEDVGVYYCSQNTHVPPTFGQGTKVEIERTVAAPSVFIFPPSDEQLKSGTASVVCLLNNFYPREAKVQWKVDNALQSGNSQESVTEQDSKDSTYSLSSTLTLSKADYEKHKVYACEVTHQGLSSPVTKSFNRGEC
		11.3 % of control	heterodimerized antibody GpH7-A5/GpH7-B3 variant S267_12R/GpL16-k0 (antibody, human IgG1, kappa, He Ab: anti-glypican-3 IgG1, alteration in one H chain only; also called He Ab) heavy 1: not shown heavy 2: not shown light: DIVMTQSPLSLPVTPGEPASISCQASESLVHSNRNTYLHWYLQKPGQSPQLLIYKVSNRFSGVPDRFSGSGSGTDFTLKISRVEAEDVGVYYCSQNTHVPPTFGQGTKVEIERTVAAPSVFIFPPSDEQLKSGTASVVCLLNNFYPREAKVQWKVDNALQSGNSQESVTEQDSKDSTYSLSSTLTLSKADYEKHKVYACEVTHQGLSSPVTKSFNRGEC
		0.4 % of control	heterodimerized antibody GpH7-A5/GpH7-B3 variant V266_05P/GpL16-k0 (antibody, human IgG1, kappa, He Ab: anti-glypican-3 IgG1, alteration in one H chain only; also called He Ab) heavy 1: not shown heavy 2: not shown light: DIVMTQSPLSLPVTPGEPASISCQASESLVHSNRNTYLHWYLQKPGQSPQLLIYKVSNRFSGVPDRFSGSGSGTDFTLKISRVEAEDVGVYYCSQNTHVPPTFGQGTKVEIERTVAAPSVFIFPPSDEQLKSGTASVVCLLNNFYPREAKVQWKVDNALQSGNSQESVTEQDSKDSTYSLSSTLTLSKADYEKHKVYACEVTHQGLSSPVTKSFNRGEC

The remaining lines, values behind:

Binder	He/Con_2b (FcγRIIb)	He/Con_1a (FcγRIa)	He/Con_2b (IIb binding) [1]
GpH7-A5/GpH7-B3 variant S239_03V/GpL16-k0 (antibody, human IgG1, kappa, Heterodimerized IgG1; mutation in the GpH7-B3 H chain only; also called He Ab) heavy 1: not shown heavy 2: not shown light: DIVMTQSPLSLPVTPGEPASISCQASESLVHSNRNTYLHWYLQKPGQSPQLLIYKVSNRFSGVPDRFSGSGSGTDFTLKISRVEAEDVGVYYCSQNTHVPPTFGQGTKVEIERTVAAPSVFIFPPSDEQLKSGTASVVCLLNNFYPREAKVQWKVDNALQSGNSQESVTEQDSKDSTYSLSSTLTLSKADYEKHKVYACEVTHQGLSSPVTKSFNRGEC	108 % of control	95.9 % of control	
heterodimerized antibody GpH7-A5/GpH7-B3 variant S267_11K/GpL16-k0 (antibody, human IgG1, kappa, He Ab: anti-glypican-3 IgG1, alteration in one H chain only; also called He Ab) heavy 1: not shown heavy 2: not shown light: DIVMTQSPLSLPVTPGEPASISCQASESLVHSNRNTYLHWYLQKPGQSPQLLIYKVSNRFSGVPDRFSGSGSGTDFTLKISRVEAEDVGVYYCSQNTHVPPTFGQGTKVEIERTVAAPSVFIFPPSDEQLKSGTASVVCLLNNFYPREAKVQWKVDNALQSGNSQESVTEQDSKDSTYSLSSTLTLSKADYEKHKVYACEVTHQGLSSPVTKSFNRGEC			12.2 % of control
GpH7-A5/GpH7-B3 variant N325_06M/GpL16-k0 (antibody, human IgG1, kappa, Heterodimerized IgG1; mutation in the GpH7-B3 H chain only; also called He Ab) heavy 1: not shown heavy 2: not shown light: DIVMTQSPLSLPVTPGEPASISCQASESLVHSNRNTYLHWYLQKPGQSPQLLIYKVSNRFSGVPDRFSGSGSGTDFTLKISRVEAEDVGVYYCSQNTHVPPTFGQGTKVEIERTVAAPSVFIFPPSDEQLKSGTASVVCLLNNFYPREAKVQWKVDNALQSGNSQESVTEQDSKDSTYSLSSTLTLSKADYEKHKVYACEVTHQGLSSPVTKSFNRGEC	217 % of control	97.6 % of control	
GpH7-A5/GpH7-B3 variant N325_01G/GpL16-k0 (antibody, human IgG1, kappa, Heterodimerized IgG1; mutation in the GpH7-B3 H chain only; also called He Ab) heavy 1: not shown heavy 2: not shown light: DIVMTQSPLSLPVTPGEPASISCQASESLVHSNRNTYLHWYLQKPGQSPQLLIYKVSNRFSGVPDRFSGSGSGTDFTLKISRVEAEDVGVYYCSQNTHVPPTFGQGTKVEIERTVAAPSVFIFPPSDEQLKSGTASVVCLLNNFYPREAKVQWKVDNALQSGNSQESVTEQDSKDSTYSLSSTLTLSKADYEKHKVYACEVTHQGLSSPVTKSFNRGEC	101 % of control	97.1 % of control	
GpH7-A5/GpH7-B3 variant S239_06M/GpL16-k0 (antibody, human IgG1, kappa, Heterodimerized IgG1; mutation in the GpH7-B3 H chain only; also called He Ab) heavy 1: not shown heavy 2: not shown light: DIVMTQSPLSLPVTPGEPASISCQASESLVHSNRNTYLHWYLQKPGQSPQLLIYKVSNRFSGVPDRFSGSGSGTDFTLKISRVEAEDVGVYYCSQNTHVPPTFGQGTKVEIERTVAAPSVFIFPPSDEQLKSGTASVVCLLNNFYPREAKVQWKVDNALQSGNSQESVTEQDSKDSTYSLSSTLTLSKADYEKHKVYACEVTHQGLSSPVTKSFNRGEC	101 % of control	99 % of control	
